From US20160230171

T1: plakoglobin
T1 chain: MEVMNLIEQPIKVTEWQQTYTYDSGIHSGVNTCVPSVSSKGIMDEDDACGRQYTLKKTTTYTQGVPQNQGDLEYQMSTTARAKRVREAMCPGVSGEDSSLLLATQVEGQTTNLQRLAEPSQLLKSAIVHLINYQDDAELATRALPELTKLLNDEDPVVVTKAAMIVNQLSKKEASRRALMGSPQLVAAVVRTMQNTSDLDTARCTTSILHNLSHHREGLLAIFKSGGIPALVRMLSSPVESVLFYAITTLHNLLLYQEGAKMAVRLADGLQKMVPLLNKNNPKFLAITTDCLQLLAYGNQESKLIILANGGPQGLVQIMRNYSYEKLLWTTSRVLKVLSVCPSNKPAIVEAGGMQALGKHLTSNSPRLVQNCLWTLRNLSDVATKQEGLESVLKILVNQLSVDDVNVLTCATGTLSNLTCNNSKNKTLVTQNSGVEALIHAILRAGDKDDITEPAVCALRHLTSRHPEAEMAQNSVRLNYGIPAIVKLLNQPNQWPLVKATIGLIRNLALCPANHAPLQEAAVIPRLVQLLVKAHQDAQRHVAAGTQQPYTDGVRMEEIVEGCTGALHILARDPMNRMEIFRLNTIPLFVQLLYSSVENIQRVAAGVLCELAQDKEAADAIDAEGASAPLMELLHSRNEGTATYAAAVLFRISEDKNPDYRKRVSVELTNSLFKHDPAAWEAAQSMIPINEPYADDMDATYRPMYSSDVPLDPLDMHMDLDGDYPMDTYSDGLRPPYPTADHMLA

T2: 6His-plakoglobin
T2 chain: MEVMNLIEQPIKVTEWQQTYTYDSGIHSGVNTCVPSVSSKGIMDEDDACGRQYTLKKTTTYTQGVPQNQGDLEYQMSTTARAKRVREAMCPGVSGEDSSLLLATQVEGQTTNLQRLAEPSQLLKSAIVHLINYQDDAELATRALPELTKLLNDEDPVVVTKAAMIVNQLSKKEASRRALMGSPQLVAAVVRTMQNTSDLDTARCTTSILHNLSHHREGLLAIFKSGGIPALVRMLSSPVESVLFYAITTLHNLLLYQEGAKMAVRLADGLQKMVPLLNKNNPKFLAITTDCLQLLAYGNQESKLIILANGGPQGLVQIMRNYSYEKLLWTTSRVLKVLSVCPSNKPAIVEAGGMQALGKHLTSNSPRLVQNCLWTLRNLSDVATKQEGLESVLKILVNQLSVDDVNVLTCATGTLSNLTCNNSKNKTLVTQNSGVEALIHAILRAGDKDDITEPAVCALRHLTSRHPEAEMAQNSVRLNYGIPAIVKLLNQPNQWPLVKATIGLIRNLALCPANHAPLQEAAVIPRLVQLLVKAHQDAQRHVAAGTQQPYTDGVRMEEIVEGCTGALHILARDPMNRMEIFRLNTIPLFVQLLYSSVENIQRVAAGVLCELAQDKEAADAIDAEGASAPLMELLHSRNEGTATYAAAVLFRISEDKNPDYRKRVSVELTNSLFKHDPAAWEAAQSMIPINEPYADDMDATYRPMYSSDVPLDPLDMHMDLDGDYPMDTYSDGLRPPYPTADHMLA


What was measured:
plakoglobin = target: T1, plakoglobin
6His-plakoglobin = target: T2, 6His-plakoglobin

Row | Protein | polyubiquitination in vitro (E1, UbcH5, ATP, 6His-ubiquitin; nickel column; mass spectrometry) (plakoglobin) | polyubiquitination in vitro (Trim32, UbcH5, ubiquitin, ATP; Ni column; immunoblot with anti plakoglobin) (6His-plakoglobin)
1 | GST-Trim32 (protein) MAAAAAASHLNLDALREVLECPICMESFTEEQLRPKLLHCGHTICRQCLEKLLASSINGVRCPFCSKITRITSLTQLTDNLTVLKIIDTAGLSEAVGLLMCRGCGRRLPRQFCRSCGVVLCEPCREADHQPPGHCTLPVKEAAEERRRDFGEKLTRLRELTGELQRRKAALEGVSRDLQARYKAVLQEYGHEERRIQEELARSRKFFTGSLAEVEKSNSQVVEEQSYLLNIAEVQAVSRCDYFLAKIKQADVALLEETADEEEPELTASLPRELTLQDVELLKVGHVGPLQIGQAVKKPRTVNMEDSWAGEEGAASSASASVTFREMDMSPEEVAPSPRASPAKQRSSEAASGIQQCLFLKKMGAKGSTPGMFNLPVSLYVTSQSEVLVADRGNYRIQVFNRKGFLKEIRRSPSGIDSFVLSFLGADLPNLTPLSVAMNCHGLIGVTDSYDNSLKVYTMDGHCVACHRSQLSKPWGITALPSGQFVVTDVEGGKLWCFTVDRGAGVVKYSCLCSAVRPKFVTCDAEGTVYFTQGLGLNVENRQNEHHLEGGFSIGSVGPDGQLGRQISHFFSENEDFRCIAGMCVDARGDLIVADSSRKEILHFPKGGGYSVLIREGLTCPVGIALTPKGQLLVLDCWDHCVKIYSYHLRRYSTP | plakoglobin was polyubiquitinated by Trim32 (as documented by the presence of 13 unique peptides) | 
2 | recombinant Trim32 (protein) MAAAAAASHLNLDALREVLECPICMESFTEEQLRPKLLHCGHTICRQCLEKLLASSINGVRCPFCSKITRITSLTQLTDNLTVLKIIDTAGLSEAVGLLMCRGCGRRLPRQFCRSCGVVLCEPCREADHQPPGHCTLPVKEAAEERRRDFGEKLTRLRELTGELQRRKAALEGVSRDLQARYKAVLQEYGHEERRIQEELARSRKFFTGSLAEVEKSNSQVVEEQSYLLNIAEVQAVSRCDYFLAKIKQADVALLEETADEEEPELTASLPRELTLQDVELLKVGHVGPLQIGQAVKKPRTVNMEDSWAGEEGAASSASASVTFREMDMSPEEVAPSPRASPAKQRSSEAASGIQQCLFLKKMGAKGSTPGMFNLPVSLYVTSQSEVLVADRGNYRIQVFNRKGFLKEIRRSPSGIDSFVLSFLGADLPNLTPLSVAMNCHGLIGVTDSYDNSLKVYTMDGHCVACHRSQLSKPWGITALPSGQFVVTDVEGGKLWCFTVDRGAGVVKYSCLCSAVRPKFVTCDAEGTVYFTQGLGLNVENRQNEHHLEGGFSIGSVGPDGQLGRQISHFFSENEDFRCIAGMCVDARGDLIVADSSRKEILHFPKGGGYSVLIREGLTCPVGIALTPKGQLLVLDCWDHCVKIYSYHLRRYSTP |  | recombinant Trim32 also polyubiquitinated 6His-plakoglobin, which was expressed and purified from normal muscle
